The target in assay [1] is T1, Peptide 3-BSA (SSMEDYVNFN-C conjugated to BSA) (human).
T1 peptide: SSMEDYVNFNC(BSA)
In words: ELISA; Ab 1 ug/mL; repII. As to the method: (§1) In brief, plates with each non-conjugated peptide (50 μg/mL) or BSA-conjugated peptide (5 μg/mL) were coated in 0.58M carbonate-bicarbonate buffer pH9.5, 100 μL/well, at 4° C. […] After washing, wells were incubated with the 3, 3′,5,5′-Tetramethylbenzidine (TMB) HRP substrate and reactions were stopped with 2M HCl and OD450 was recorded.
On the technique in general: In an ELISA, binding on a coated surface is turned into a signal by an enzyme label.

Assay [2] deals with T2, Peptide 4-BSA (SMEDYVNFNF-C conjugated to BSA) (human).
T2 peptide: SMEDYVNFNFC(BSA)
In words: ELISA; Ab 1 ug/mL; repII. How it is done:
as §1

Assay [3] deals with T3, Peptide 1, non-conjugated (MADDYGSEST-C) (human).
T3 construct: With the extra C-terminal Cys
T3 peptide: MADDYGSESTC
Nature of the assay: ELISA; Ab 1 ug/mL; repII. As to the method: as §1

Assay [4] deals with T4, Peptide 2, non-conjugated (GSESTSSMED-C) (human).
T4 construct: With the extra C-terminal Cys
T4 peptide: GSESTSSMEDC
In words: ELISA; Ab 1 ug/mL; repII. As to the method: as §1

The target of assay [5] is T5, Peptide 3, non-conjugated (SSMEDYVNFN-C) (human).
T5 construct: With the extra C-terminal Cys
T5 peptide: SSMEDYVNFNC
Nature of the assay: ELISA; Ab 1 ug/mL; repII. How it is done:
as §1

Assay [6] deals with T6, Peptide 4, non-conjugated (SMEDYVNFNF-C) (human).
T6 construct: With the extra C-terminal Cys
T6 peptide: SMEDYVNFNFC
In words: ELISA; Ab 1 ug/mL; repII. How it is done: as §1

The target of assay [7] is T7, BSA (negative control coating) (bovine, UniProt P02769 25-607).
T7 construct: also called Negative control BSA
In words: ELISA; Ab 1 ug/mL; repII. As to the method: as §1

Assay [8] concerns the target T8, antigen peptide-BSA (immunisation peptide #1 MADDYGSESTSSMEDYVNFNF-C conjugated to BSA) (human, extra C-terminal Cys conjugated to BSA).
T8 construct: also called Positive control antigen peptide-BSA; MADDY peptide
T8 peptide: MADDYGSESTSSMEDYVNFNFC
In words: ELISA; Ab 1 ug/mL; repII. As to the method: as §1

The target of assay [9] is T9, Peptide 1-BSA (MADDYGSEST-C conjugated to BSA) (human).
T9 peptide: MADDYGSESTC(BSA)
In words: ELISA; Ab 1 ug/mL; repII. How it is done:
as §1

Assay [10] deals with T10, Peptide 2-BSA (GSESTSSMED-C conjugated to BSA) (human).
T10 peptide: GSESTSSMEDC(BSA)
Nature of the assay: ELISA; Ab 1 ug/mL; repII. As to the method: as §1

Assay [11] deals with T5, Peptide 3, non-conjugated (SSMEDYVNFN-C). Nature of the assay: ELISA; Ab 0.0625 ug/mL; repI. How it is done: as §1
Assay [12] has as its target T7, BSA (negative control coating). In words: ELISA; Ab 0.0625 ug/mL; repI. As to the method: as §1
The target in assay [13] is T9, Peptide 1-BSA (MADDYGSEST-C conjugated …). Nature of the assay: ELISA; Ab 0.0625 ug/mL; repI. As to the method: as §1
Assay [14] has as its target T1, Peptide 3-BSA (SSMEDYVNFN-C conjugated …). Nature of the assay: ELISA; Ab 0.0625 ug/mL; repII. How it is done:
as §1

The target in assay [15] is T2, Peptide 4-BSA (SMEDYVNFNF-C conjugated …). In words: ELISA; Ab 0.0625 ug/mL; repII. How it is done:
as §1

For assay [16], the target named is T5, Peptide 3, non-conjugated (SSMEDYVNFN-C). Nature of the assay: ELISA; Ab 0.0625 ug/mL; repII. As to the method:
as §1

Assay [17] deals with T11, biotin-peptide TSSMEDYVNF (human).
T11 peptide: Biotin-TSSMEDYVNF
In words: ELISA biotin-peptide; scFv 10 ug/mL; repII. How it is done: (§2) The peptides were synthesized naked or with a N-terminal Biotin modification with a purity of >98%. All four scFvs were verified by ELISA that can be detected with anti-His antibodies. ELISA was performed for scFv-peptide binding validation. Briefly, naked peptides were coated (50 μg/mL) in 0.58M carbonate-bicarbonate buffer pH9.5, 100 μL/well, 4° C. O/N. Then after blocking (3% BSA-PBS, 300 μL/well 37° C. 1.5 h) and washing (PBS+Tween-20 0.05% v/v (0.05% PBST), wells were incubated with each purified scFv antibody at concentration of 1 μg/mL in PBS at 37° C. 1 h. After washing (0.05% PBST), wells were incubated with secondary antibodies (goat anti-His IgG-HRP) in PBS, 37° C., 30 min. After washing, and incubation with TMB substrate, reactions were stopped with 2M HCl and reading was quantified at OD450.
(§3) ELISA with biotin-conjugated peptides (5 μg/mL) was performed very similar to described above with minor modifications.
(§4) A full curve ELISA was performed for each positive scFv/biotin-peptide pair in order to confirm previous results. Tables 15-17 show ELISA results of the dose-dependent full curve for each positive peptide with scFv “CCR9_HUM”, “Comp-2” and “Comp-3”, respectively.

The target in assay [18] is T12, biotin-peptide SSMEDYVNFN (human).
T12 peptide: Biotin-SSMEDYVNFN
Nature of the assay: ELISA biotin-peptide; scFv 10 ug/mL; repII. How it is done: as §2, §3, §4

In assay [19] the target is T13, biotin-peptide SMEDYVNFNF (human).
T13 peptide: Biotin-SMEDYVNFNF
Nature of the assay: ELISA biotin-peptide; scFv 10 ug/mL; repII. How it is done:
as §2, §3, §4

The target in assay [20] is T14, biotin-peptide MEDYVNFNFT (human).
T14 peptide: Biotin-MEDYVNFNFT
In words: ELISA biotin-peptide; scFv 10 ug/mL; repII. As to the method:
as §2, §3, §4

Assay [21] deals with T15, Pep1-48, N-terminal domain 1 of CCR9, amino acids 1 to 48 (human).
T15 construct: Chemically synthesized (Genscript), purity >75%; also called CCR9 N-terminal 1-48 peptide
T15 peptide: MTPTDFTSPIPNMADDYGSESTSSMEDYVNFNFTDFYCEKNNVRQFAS
In words: BLI, His-tagged scFv on NTA biosensor, Pep1-48 as analyte, 1:1 global fit; paragraph 309 says that Comp-1 does not bind, in agreement with the BLI results of Table 11. How it is done: The affinity between the CCR9-N-terminal domain 1 of CCR9 and the different scFvs was determined by Bio-Layer Interferometry (BLI), a technique that allows quantitative and qualitative measurement of biomolecular interactions in real-time. Briefly, scFv were immobilized onto NTA Biosensor (Sartorius) and quantification was performed in an Octet RED384 (Sartorius). scFv were dissolved in PBS (150 mM NaCl, 38 mM Na2HPO4, 12 mM NaH2PO4, pH 7.2) and a buffer containing 0.03% Tween-20 in PBS, pH 7.2 was used for baseline steps.

Where no end group is shown, it is not given here. The star is where a group is joined. Biotin = O=C1N[C@H]2[C@H](CS[C@H]2CCCCC(=O)*)N1

T7 sequence (P02769 25-607 limits assumed): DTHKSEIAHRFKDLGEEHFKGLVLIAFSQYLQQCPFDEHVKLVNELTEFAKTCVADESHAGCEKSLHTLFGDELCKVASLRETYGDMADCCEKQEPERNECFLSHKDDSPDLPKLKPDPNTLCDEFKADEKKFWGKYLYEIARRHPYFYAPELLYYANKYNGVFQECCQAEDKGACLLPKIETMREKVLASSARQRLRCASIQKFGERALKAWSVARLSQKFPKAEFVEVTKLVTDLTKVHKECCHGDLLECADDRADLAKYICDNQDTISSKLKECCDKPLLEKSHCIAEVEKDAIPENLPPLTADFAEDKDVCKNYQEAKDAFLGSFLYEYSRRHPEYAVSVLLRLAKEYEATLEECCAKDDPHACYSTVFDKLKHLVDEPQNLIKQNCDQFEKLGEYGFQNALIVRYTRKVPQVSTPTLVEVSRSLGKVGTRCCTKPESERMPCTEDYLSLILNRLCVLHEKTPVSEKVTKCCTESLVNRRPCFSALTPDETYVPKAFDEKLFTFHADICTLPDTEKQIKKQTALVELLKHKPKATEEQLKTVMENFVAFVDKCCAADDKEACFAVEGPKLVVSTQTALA

B1: anti-CCR9 antibody clone 115 (murine, from hybridoma #115) (antibody, V domains shown)
VH: QVQLKQSGPELVKPGTSVRVSCTASGYSFTDYIIYWVKQSHGRSLEWIGYIDPNNYNTRYSQKFKGKATLTVDKSSTSAFMHLNSLTSDDSAVYYCARDVYWGQGTTLTVSS
VL: DVVMTQTPLSLTVSLGDQASISCRSSQSLVHSNGKTYLQWYLQKPGQSPKLLIYKVSNRFSGVPDRFSGSGSGTDFTLKISRVEAEDLGVYFCAQSTHVWTFGGGTKLEIKR
notes: Mouse IgG1
For the molecule B1, the OD450 came to 2.16 OD in assay [1]; 2.75 OD in assay [2]; 0.02 OD in assay [3]; 0.02 OD in [4]; 2.1 OD in assay [5]; 2.46 OD in assay [6]. Besides, the OD450 was determined as 0.02 OD in assay [7]; 2.68 OD in assay [8]; 0.03 OD in assay [9]; 0.03 OD in [10]; 1.83 OD in [11]; 0.01 OD in [12]. The OD450 in assay [13] came out at 0.01 OD; in assay [14], 1.78 OD; in [15], 2.01 OD; in [16], 1.67 OD.

B2: CCR9_HUM2 scFv (humanized anti-CCR9 scFv, SEQ ID NO: 17 with C-terminal 6xHis tag) (scFv)
scFv: QVQLVQSGAEVKKPGASVKVSCTASGYSFTDYIIYWVKQAHGQSLEWMGYIDPNNYNTRYSQKFQGKVTITVDKSSTSAYMELNSLTSDDTAVYYCARDVYWGQGTTVTVSSGGGGSGGGGSGGGGSGGGGSDVVMTQTPLSLSVTPGQPASISCRSSQSLVHSNGKTYLQWYLQKPGQSPKLLIYKVSNRFSGVPDRFSGSGSGTDFTLKISRVEAEDVGVYFCAQSTHVWTFGGGTKVEIKRAHHHHHH
Take B2: the OD450 in assay [17] was 1.36 OD; in assay [18], 1.87 OD; in assay [19], 1.85 OD; in assay [20] it was 1.79 OD.

B3: Comparative antibody 1 (Comp-1) scFv, SEQ ID NO: 10 from WO2023/037125 A1, His-tagged (scFv)
scFv: QVQLKESGPGLVQPSQTLSLTCTVSGFSVASYDMHWVRLPPGKGLEWMGIIWANGNTHYNSGLKSRLSISRDTSKSQVFLKMNSLQTEDTAIYFCTRGGFAYWGQGTLVTVSSGGGGSGGGGSGGGGSGGGGSDVVMTQTPVSLSVSLGGQVSISCRSSQSLVHNNGNTYLSWYLQKPGQSPQLLIYKVSNRFSGVSDRFSGSGSGTDFTLKISRVEPDDLGVYYCGQGTQYPTFGGGTKLELKHHHHHH
B3: the binding result in assay [21] is recorded as “no binding”.
